Assays:
Rhino 2 = type: cell-based, rhino virus; conditions: Rhino 2, KB
HHV-8 = HHV-8 replication in BCBL-1 cells (TaqMan PCR extracellular HHV-8 DNA; dye uptake TC50); type: cell-based, human herpesvirus-8
Description: The therapeutic index (TI) is calculated as TC50/IC50.

[1] = system: Venezuelan equine encephalitis virus; type: cell-based; conditions: Vero
Adenovirus [2] = type: cell-based
Adenovirus [3] = type: cell-based; conditions: A549 cells, Neutral Red Assay
Rhino 9 [4] = type: cell-based, rhino virus; conditions: Rhino 9, HeLa cells, Neutral Red Assay
adenoviral vector AdGFP = assay: Adenoviral vector (AdGFP) liver pathology model in C57Bl/6 mice; conditions: AdGFP-infected C57Bl/6 mice, 50 μg i.p., 7 doses
Coxsackie B4 virus [5] = type: cell-based; conditions: KB
BVDV = BVDV inhibition of cytopathic effect assay in MDBK cells; type: cell-based, bovine viral diarrhea virus; conditions: MDBK bovine kidney cells, day 7
Description: The MDBK cells were propagated in Dulbecco's modified essential medium (DMEM) containing phenol red with 10% horse serum, 1% glutamine and 1% penicillin-streptomycin. CPE inhibition assays were performed in DMEM without phenol red with 2% FBS, 1% glutamine and 1% Pen-Strep. On the day preceding the assays, cells were trypsinized (1% trypsin-EDTA), washed, counted and plated out at 10^4 cells/well in a 96-well flat-bottom BioCoat® plates (Fisher Scientific, Pittsburgh, Pa.) in a volume of 100 μl/well. The next day, the medium was removed and a pre-titered aliquot of virus was added to the cells. The amount of virus was the maximum dilution that would yield complete cell killing (>80%) at the time of maximal CPE development (day 7 for BVDV). Cell viability was determined using a CellTiter96® reagent (Promega) according to the manufacturer's protocol, using a Vmax plate reader (Molecular Devices, Sunnyvale, Calif.). Test samples were tested at six concentrations each, diluted in assay medium in a half-log series. IFNα and RIBAVIRIN® were used as positive controls. Test sample were added at the time of viral infection. The average background and sample color-corrected data for percent CPE reduction and percent cell viability at each concentration were determined relative to controls and the IC50 calculated relative to the TC50.

Parainfluenza virus = type: cell-based
[6] = system: Respiratory syncytial virus; type: cell-based; conditions: MA-104 cells, Neutral Red Assay
Dengue virus = type: cell-based; conditions: Vero cells, Neutral Red Assay
Polio virus [7] = type: cell-based; conditions: Vero cells, Neutral Red Assay
[8] = system: Respiratory syncytial virus; type: cell-based
Rhino 9 [9] = type: cell-based, rhino virus; conditions: Rhino 9, HeLa
Coxsackie B4 virus [10] = type: cell-based; conditions: KB cells, Neutral Red Assay
Pichinde virus = type: cell-based
Vaccinia virus = type: cell-based; conditions: Vero cells, Neutral Red Assay
West Nile virus = type: cell-based; conditions: Vero cells, Neutral Red Assay
[11] = system: Influenza (type A [H3N2]); type: cell-based; conditions: Maden-Darby Canine Kidney cells, Neutral Red Assay
AML-12 cells = assay: ISG induction in the mouse liver cell line AML-12 (real-time PCR); type: cell-based; conditions: AML-12, 20 ng/ml, 48 hour time point; mRNA relative to HPRT gene expression
Description: AML-12 cells were plated in 6-well plates in complete DMEM media at a concentration of 2×10^6 cells/well. […] As a control, cells were either stimulated with mouse IFNα (positive control) or unstimulated (negative). […] RNA was isolated from cell pellets using RNAEasy-kit® (Qiagen, Valencia, Calif.). RNA was treated with DNase (Millipore, Billerica, Mass.) to clean RNA of any contaminating DNA. cDNA was generated using Perkin-Elmer RT mix. ISG gene induction was evaluated by real-time PCR using primers and probes specific for mouse OAS, Pkr and Mx1. To obtain quantitative data, HPRT real-time PCR was duplexed with ISG PCR. A standard curve was obtained using known amounts of RNA from IFN-stimulated mouse PBLs. All data are shown as expression relative to internal HPRT expression.

Polio virus [12] = type: cell-based; conditions: Vero

B1: IL-29: human IL-29 cytokine polypeptide (zcyto21), e.g. SEQ ID NO:20 (protein, listed as Homo sapiens)
chain: MAAAWTVVLVTLVLGLAVAGPVPTSKPTTTGKGCHIGRFKSLSPQELASFKKARDALEESLKLKNWSCSSPVFPGNWDLRLLQVRERPVALEAELALTLKVLEAAAGPALEDVLDQPLHTLHHILSQLQACIQPQPTAGPRPRGRLHHWLHRLQEAPKKESAGCLEASVTFNLFRLLTRDLKYVADGNLCLRTSTHPEST
modifications: SIGNAL (1)...(19)
EC50 Visual (Rhino 2): >10 µg/mL | IC50 Visual (Rhino 2; numerator of SI): >10 µg/mL | TI (TC50/IC50) (HHV-8): > 1.85 | IC50 (extracellular HHV-8 DNA) (HHV-8; six days): 6.5 µg/mL | EC50 Visual [1]: 0.012 µg/mL | IC50 Visual ([1]; numerator of SI): >10 µg/mL | EC50 Visual (Adenovirus [2]; A549): >10 µg/mL | IC50 Visual (Adenovirus [2]; A549, numerator of SI): >10 µg/mL | EC50 NR (Adenovirus [3]): >10 µg/mL | IC50 NR (Adenovirus [3]): >10 µg/mL | EC50 NR (Rhino 9 [4]): 0.982 µg/mL | IC50 NR (Rhino 9 [4]): >10 µg/mL | liver histology: cellular changes versus PBS treatment group (adenoviral vector AdGFP): less proliferation of sinusoidal cells, fewer mitotic figures and fewer changes in the hepatocytes | liver histology: liver and inflammation scores versus PBS-treated group (adenoviral vector AdGFP): lower liver and inflammation scores | average serum AST (adenoviral vector AdGFP; n=8): 162 U/L | serum ALT (adenoviral vector AdGFP; n=8): 184 U/L | EC50 Visual (Coxsackie B4 virus [5]): >10 µg/mL | IC50 Visual (Coxsackie B4 virus [5]; numerator of SI): >10 µg/mL | IC50 (inhibition of cell death induced by BVDV) (BVDV): 0.19 µg/mL | EC50 Visual (Parainfluenza virus; MA-104): >10 µg/mL | IC50 Visual (Parainfluenza virus; MA-104, numerator of SI): >10 µg/mL | EC50 NR [6]: >10 µg/mL | IC50 NR [6]: >10 µg/mL | EC50 NR (Dengue virus): 0.05 µg/mL | IC50 NR (Dengue virus): >10 µg/mL | EC50 NR (Polio virus [7]): >10 µg/mL | IC50 NR (Polio virus [7]): >10 µg/mL | EC50 Visual ([8]; MA-104): >10 µg/mL | IC50 Visual ([8]; MA-104, numerator of SI): >10 µg/mL | EC50 Visual (Rhino 9 [9]): >10 µg/mL | IC50 Visual (Rhino 9 [9]; numerator of SI): >10 µg/mL | EC50 NR (Coxsackie B4 virus [10]): >10 µg/mL | IC50 NR (Coxsackie B4 virus [10]): >10 µg/mL | EC50 Visual (Pichinde virus): >10 µg/mL | IC50 Visual (Pichinde virus): >10 µg/mL | EC50 NR (Vaccinia virus): >10 µg/mL | IC50 NR (Vaccinia virus): >10 µg/mL | EC50 NR (West Nile virus): 0.00025 µg/mL | IC50 NR (West Nile virus): >10 µg/mL | EC50 NR [11]: >10 µg/mL | IC50 NR [11]: >10 µg/mL | Mx1 (AML-12 cells): 0.07 | OAS (AML-12 cells): 0.04 | PkR (AML-12 cells): 0.02 | EC50 Visual (Polio virus [12]): >10 µg/mL | IC50 Visual (Polio virus [12]; numerator of SI): >10 µg/mL

From patent publication US20120114590A1 (priority 2005, published 2012)
